According to the supplement of paper PMC11908140:

B1: library; numbered along this chain (parent)
chain: MRKPRAAVGSGHRKQAASQEGRQKHAKNNSQAKPSACDGLARQPEEVVLQASVSSYHLFRDVAEVTAFRGSLLSWYDQEKRDLPWRRRAEDEMDLDRRAYAVWVSEVMLQQTQVATVINYYTGWMQKWPTLQDLASASLEEVNQLWAGLGYYSRGRRLQEGARKVVEELGGHMPRTAETLQQLLPGVGRYTAGAIASIAFGQATGVVDGNVARVLCRVRAIGADPSSTLVSQQLWGLAQQLVDPARPGDFNQAAMELGATVCTPQRPLCSQCPVESLCRARQRVEQEQLLASGSLSGSPDVEECAPNTGQCHLCLPPSEPWDQTLGVVNFPRKASRKPPREESSATCVLEQPGALGAQILLVQRPNSGLLAGLWEFPSVTWEPSEQLQRKALLQELQRWAGPLPATHLRHLGEVVHTFSHIKLTYQVYGLALEGQTPVTTVPPGARWLTQEEFHTAAVSTAMKKVFRVYQGQQPGTCMGSKRSQVSSPCSRKKPRMGQQVLDNFFRSHISTDAHSLNSAAQ

Variants of: B1
Assay: 8OG:A repair function score (normalized; synonymous = 0, nonsense = -1) (normalized log-likelihood score); higher = more repair activity (WT-like)
Settings: with 8OG:A DNA repair reporter (GFP) in HEK-293 MUTYH KO cells
In short: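 After 72 h, viable mCherry+ cells were split into GFP+ (repair) and GFP− bins in three replicates per tile. These cells were MUTYH knockout HEK-293 cells holding lentiviral MUTYH cDNA NNN codon-scan libraries, kept in 10 pg/ml doxycycline and co-transfected with mCherry plus an 8OG:A GFP repair reporter. Sequencing of tile amplicons gave per-tile Rosace fitness scores, normalized into a repair function score anchored on synonymous and nonsense distributions. Synonymous medians were fixed at 0, nonsense at -1, and variants under 300 counts per million at the start were removed.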
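Further: cells sorted at 72 h after reporter transfection.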

| Variant | 8OG:A repair function score |
| --- | --- |
| MRKPRAAVGSGHRKQAASQEGRQKHAKNNSQAKPSACDGLARQPEEVVLQASVSSYHLFRDVAEVTAFRGSLLSWYDQEKRDLPWRRRAEDEMDLDRRAYAVWVSEVMLQQTQVATVINYYTGWMQKWPTLQDLASASLEEVNQLWAGLGYYSRGRRLQEGARKVVEELGGHMPRTAETLQQLLPGVGRYTAGAIASIAFGQATGVVDGNVARVLCRVRAIGADPSSTLVSQQLWGLYQQLVDPARPGDFNQAAMELGATVCTPQRPLCSQCPVESLCRARQRVEQEQLLASGSLSGSPDVEECAPNTGQCHLCLPPSEPWDQTLGVVNFPRKASRKPPREESSATCVLEQPGALGAQILLVQRPNSGLLAGLWEFPSVTWEPSEQLQRKALLQELQRWAGPLPATHLRHLGEVVHTFSHIKLTYQVYGLALEGQTPVTTVPPGARWLTQEEFHTAAVSTAMKKVFRVYQGQQPGTCMGSKRSQVSSPCSRKKPRMGQQVLDNFFRSHISTDAHSLNSAAQ [A238Y] | -0.881 |
| MRKPRAAVGSGHRKQAASQEGRQKHAKNNSQAKPSACDGLARQPEEVVLQASVSSYHLFRDVAEVTAFRGSLLSWYDQEKRDLPWRRRAEDEMDLDRRAYAVWVSEVMLQQTQVATVINYYTGWMQKWPTLQDLASASLEEVNQLWAGLGYYSRGRRLQEGARKVVEELGGHMPRTAETLQQLLPGVGRYTAGAIASIAFGQATGVVDGNVARVLCRVRAIGADPSSTLVSQQLWGLWQQLVDPARPGDFNQAAMELGATVCTPQRPLCSQCPVESLCRARQRVEQEQLLASGSLSGSPDVEECAPNTGQCHLCLPPSEPWDQTLGVVNFPRKASRKPPREESSATCVLEQPGALGAQILLVQRPNSGLLAGLWEFPSVTWEPSEQLQRKALLQELQRWAGPLPATHLRHLGEVVHTFSHIKLTYQVYGLALEGQTPVTTVPPGARWLTQEEFHTAAVSTAMKKVFRVYQGQQPGTCMGSKRSQVSSPCSRKKPRMGQQVLDNFFRSHISTDAHSLNSAAQ [A238W] | -0.956 |
| MRKPRAAVGSGHRKQAASQEGRQKHAKNNSQAKPSACDGLARQPEEVVLQASVSSYHLFRDVAEVTAFRGSLLSWYDQEKRDLPWRRRAEDEMDLDRRAYAVWVSEVMLQQTQVATVINYYTGWMQKWPTLQDLASASLEEVNQLWAGLGYYSRGRRLQEGARKVVEELGGHMPRTAETLQQLLPGVGRYTAGAIASIAFGQATGVVDGNVARVLCRVRAIGADPSSTLVSQQLWGLVQQLVDPARPGDFNQAAMELGATVCTPQRPLCSQCPVESLCRARQRVEQEQLLASGSLSGSPDVEECAPNTGQCHLCLPPSEPWDQTLGVVNFPRKASRKPPREESSATCVLEQPGALGAQILLVQRPNSGLLAGLWEFPSVTWEPSEQLQRKALLQELQRWAGPLPATHLRHLGEVVHTFSHIKLTYQVYGLALEGQTPVTTVPPGARWLTQEEFHTAAVSTAMKKVFRVYQGQQPGTCMGSKRSQVSSPCSRKKPRMGQQVLDNFFRSHISTDAHSLNSAAQ [A238V] | 0.0238 |
| MRKPRAAVGSGHRKQAASQEGRQKHAKNNSQAKPSACDGLARQPEEVVLQASVSSYHLFRDVAEVTAFRGSLLSWYDQEKRDLPWRRRAEDEMDLDRRAYAVWVSEVMLQQTQVATVINYYTGWMQKWPTLQDLASASLEEVNQLWAGLGYYSRGRRLQEGARKVVEELGGHMPRTAETLQQLLPGVGRYTAGAIASIAFGQATGVVDGNVARVLCRVRAIGADPSSTLVSQQLWGLAAQLVDPARPGDFNQAAMELGATVCTPQRPLCSQCPVESLCRARQRVEQEQLLASGSLSGSPDVEECAPNTGQCHLCLPPSEPWDQTLGVVNFPRKASRKPPREESSATCVLEQPGALGAQILLVQRPNSGLLAGLWEFPSVTWEPSEQLQRKALLQELQRWAGPLPATHLRHLGEVVHTFSHIKLTYQVYGLALEGQTPVTTVPPGARWLTQEEFHTAAVSTAMKKVFRVYQGQQPGTCMGSKRSQVSSPCSRKKPRMGQQVLDNFFRSHISTDAHSLNSAAQ [Q239A] | -0.104 |
| MRKPRAAVGSGHRKQAASQEGRQKHAKNNSQAKPSACDGLARQPEEVVLQASVSSYHLFRDVAEVTAFRGSLLSWYDQEKRDLPWRRRAEDEMDLDRRAYAVWVSEVMLQQTQVATVINYYTGWMQKWPTLQDLASASLEEVNQLWAGLGYYSRGRRLQEGARKVVEELGGHMPRTAETLQQLLPGVGRYTAGAIASIAFGQATGVVDGNVARVLCRVRAIGADPSSTLVSQQLWGLACQLVDPARPGDFNQAAMELGATVCTPQRPLCSQCPVESLCRARQRVEQEQLLASGSLSGSPDVEECAPNTGQCHLCLPPSEPWDQTLGVVNFPRKASRKPPREESSATCVLEQPGALGAQILLVQRPNSGLLAGLWEFPSVTWEPSEQLQRKALLQELQRWAGPLPATHLRHLGEVVHTFSHIKLTYQVYGLALEGQTPVTTVPPGARWLTQEEFHTAAVSTAMKKVFRVYQGQQPGTCMGSKRSQVSSPCSRKKPRMGQQVLDNFFRSHISTDAHSLNSAAQ [Q239C] | -0.184 |
| MRKPRAAVGSGHRKQAASQEGRQKHAKNNSQAKPSACDGLARQPEEVVLQASVSSYHLFRDVAEVTAFRGSLLSWYDQEKRDLPWRRRAEDEMDLDRRAYAVWVSEVMLQQTQVATVINYYTGWMQKWPTLQDLASASLEEVNQLWAGLGYYSRGRRLQEGARKVVEELGGHMPRTAETLQQLLPGVGRYTAGAIASIAFGQATGVVDGNVARVLCRVRAIGADPSSTLVSQQLWGLAEQLVDPARPGDFNQAAMELGATVCTPQRPLCSQCPVESLCRARQRVEQEQLLASGSLSGSPDVEECAPNTGQCHLCLPPSEPWDQTLGVVNFPRKASRKPPREESSATCVLEQPGALGAQILLVQRPNSGLLAGLWEFPSVTWEPSEQLQRKALLQELQRWAGPLPATHLRHLGEVVHTFSHIKLTYQVYGLALEGQTPVTTVPPGARWLTQEEFHTAAVSTAMKKVFRVYQGQQPGTCMGSKRSQVSSPCSRKKPRMGQQVLDNFFRSHISTDAHSLNSAAQ [Q239E] | -0.065 |
| MRKPRAAVGSGHRKQAASQEGRQKHAKNNSQAKPSACDGLARQPEEVVLQASVSSYHLFRDVAEVTAFRGSLLSWYDQEKRDLPWRRRAEDEMDLDRRAYAVWVSEVMLQQTQVATVINYYTGWMQKWPTLQDLASASLEEVNQLWAGLGYYSRGRRLQEGARKVVEELGGHMPRTAETLQQLLPGVGRYTAGAIASIAFGQATGVVDGNVARVLCRVRAIGADPSSTLVSQQLWGLAFQLVDPARPGDFNQAAMELGATVCTPQRPLCSQCPVESLCRARQRVEQEQLLASGSLSGSPDVEECAPNTGQCHLCLPPSEPWDQTLGVVNFPRKASRKPPREESSATCVLEQPGALGAQILLVQRPNSGLLAGLWEFPSVTWEPSEQLQRKALLQELQRWAGPLPATHLRHLGEVVHTFSHIKLTYQVYGLALEGQTPVTTVPPGARWLTQEEFHTAAVSTAMKKVFRVYQGQQPGTCMGSKRSQVSSPCSRKKPRMGQQVLDNFFRSHISTDAHSLNSAAQ [Q239F] | -0.526 |
| MRKPRAAVGSGHRKQAASQEGRQKHAKNNSQAKPSACDGLARQPEEVVLQASVSSYHLFRDVAEVTAFRGSLLSWYDQEKRDLPWRRRAEDEMDLDRRAYAVWVSEVMLQQTQVATVINYYTGWMQKWPTLQDLASASLEEVNQLWAGLGYYSRGRRLQEGARKVVEELGGHMPRTAETLQQLLPGVGRYTAGAIASIAFGQATGVVDGNVARVLCRVRAIGADPSSTLVSQQLWGLAKQLVDPARPGDFNQAAMELGATVCTPQRPLCSQCPVESLCRARQRVEQEQLLASGSLSGSPDVEECAPNTGQCHLCLPPSEPWDQTLGVVNFPRKASRKPPREESSATCVLEQPGALGAQILLVQRPNSGLLAGLWEFPSVTWEPSEQLQRKALLQELQRWAGPLPATHLRHLGEVVHTFSHIKLTYQVYGLALEGQTPVTTVPPGARWLTQEEFHTAAVSTAMKKVFRVYQGQQPGTCMGSKRSQVSSPCSRKKPRMGQQVLDNFFRSHISTDAHSLNSAAQ [Q239K] | -0.0216 |
| MRKPRAAVGSGHRKQAASQEGRQKHAKNNSQAKPSACDGLARQPEEVVLQASVSSYHLFRDVAEVTAFRGSLLSWYDQEKRDLPWRRRAEDEMDLDRRAYAVWVSEVMLQQTQVATVINYYTGWMQKWPTLQDLASASLEEVNQLWAGLGYYSRGRRLQEGARKVVEELGGHMPRTAETLQQLLPGVGRYTAGAIASIAFGQATGVVDGNVARVLCRVRAIGADPSSTLVSQQLWGLAGQLVDPARPGDFNQAAMELGATVCTPQRPLCSQCPVESLCRARQRVEQEQLLASGSLSGSPDVEECAPNTGQCHLCLPPSEPWDQTLGVVNFPRKASRKPPREESSATCVLEQPGALGAQILLVQRPNSGLLAGLWEFPSVTWEPSEQLQRKALLQELQRWAGPLPATHLRHLGEVVHTFSHIKLTYQVYGLALEGQTPVTTVPPGARWLTQEEFHTAAVSTAMKKVFRVYQGQQPGTCMGSKRSQVSSPCSRKKPRMGQQVLDNFFRSHISTDAHSLNSAAQ [Q239G] | -0.228 |
| MRKPRAAVGSGHRKQAASQEGRQKHAKNNSQAKPSACDGLARQPEEVVLQASVSSYHLFRDVAEVTAFRGSLLSWYDQEKRDLPWRRRAEDEMDLDRRAYAVWVSEVMLQQTQVATVINYYTGWMQKWPTLQDLASASLEEVNQLWAGLGYYSRGRRLQEGARKVVEELGGHMPRTAETLQQLLPGVGRYTAGAIASIAFGQATGVVDGNVARVLCRVRAIGADPSSTLVSQQLWGLAIQLVDPARPGDFNQAAMELGATVCTPQRPLCSQCPVESLCRARQRVEQEQLLASGSLSGSPDVEECAPNTGQCHLCLPPSEPWDQTLGVVNFPRKASRKPPREESSATCVLEQPGALGAQILLVQRPNSGLLAGLWEFPSVTWEPSEQLQRKALLQELQRWAGPLPATHLRHLGEVVHTFSHIKLTYQVYGLALEGQTPVTTVPPGARWLTQEEFHTAAVSTAMKKVFRVYQGQQPGTCMGSKRSQVSSPCSRKKPRMGQQVLDNFFRSHISTDAHSLNSAAQ [Q239I] | -0.589 |
| MRKPRAAVGSGHRKQAASQEGRQKHAKNNSQAKPSACDGLARQPEEVVLQASVSSYHLFRDVAEVTAFRGSLLSWYDQEKRDLPWRRRAEDEMDLDRRAYAVWVSEVMLQQTQVATVINYYTGWMQKWPTLQDLASASLEEVNQLWAGLGYYSRGRRLQEGARKVVEELGGHMPRTAETLQQLLPGVGRYTAGAIASIAFGQATGVVDGNVARVLCRVRAIGADPSSTLVSQQLWGLAHQLVDPARPGDFNQAAMELGATVCTPQRPLCSQCPVESLCRARQRVEQEQLLASGSLSGSPDVEECAPNTGQCHLCLPPSEPWDQTLGVVNFPRKASRKPPREESSATCVLEQPGALGAQILLVQRPNSGLLAGLWEFPSVTWEPSEQLQRKALLQELQRWAGPLPATHLRHLGEVVHTFSHIKLTYQVYGLALEGQTPVTTVPPGARWLTQEEFHTAAVSTAMKKVFRVYQGQQPGTCMGSKRSQVSSPCSRKKPRMGQQVLDNFFRSHISTDAHSLNSAAQ [Q239H] | 0.289 |
| MRKPRAAVGSGHRKQAASQEGRQKHAKNNSQAKPSACDGLARQPEEVVLQASVSSYHLFRDVAEVTAFRGSLLSWYDQEKRDLPWRRRAEDEMDLDRRAYAVWVSEVMLQQTQVATVINYYTGWMQKWPTLQDLASASLEEVNQLWAGLGYYSRGRRLQEGARKVVEELGGHMPRTAETLQQLLPGVGRYTAGAIASIAFGQATGVVDGNVARVLCRVRAIGADPSSTLVSQQLWGLADQLVDPARPGDFNQAAMELGATVCTPQRPLCSQCPVESLCRARQRVEQEQLLASGSLSGSPDVEECAPNTGQCHLCLPPSEPWDQTLGVVNFPRKASRKPPREESSATCVLEQPGALGAQILLVQRPNSGLLAGLWEFPSVTWEPSEQLQRKALLQELQRWAGPLPATHLRHLGEVVHTFSHIKLTYQVYGLALEGQTPVTTVPPGARWLTQEEFHTAAVSTAMKKVFRVYQGQQPGTCMGSKRSQVSSPCSRKKPRMGQQVLDNFFRSHISTDAHSLNSAAQ [Q239D] | 0.103 |
